Assay results published in PMC11638888 (2024).

B1: mCherry-MYO10-SLC26A4-Ct (NanoSPD bait) [mouse] / μ2-MID-EGFP (NanoSPD prey) [mouse] (parent complex)
chain 1: RVQFPSWNGLGSVPSTDIYKSITHYKNLEEPEGVKILRFSSPIFYGNVDGFKKCINSTVGFDAIRVYNKRLKALRRIQKLIKKGQLRATKNGIISDIGSSNNAFEPDEDVEEPEELNIPTKEIEIQVDWNSELPVKVNVPKVPIHSLVLDCGAVSFLDVVGVRSLRMIVKEFQRIDVNVYFALLQDDVLEKMEQCGFFDDNIRKDRFFLTVHDAILHLQNQVKSREGQDSLLETVARIRDCKDPLDLMEAEMNAEELDVQDEAMRRLAS
chain 2: SETGALKTFITQQGIKSQHQTKEEQSQITSQVTGQIGWRREGIKYRRNELFLDVLESVNLLMSPQGQVLSAHVSGRVVMKSYLSGMPECKFGMNDKIVIEKQGKGTADETSKSGKQSIAIDDCTFHQCVRLSKFDSERSISFIPPDGEFELMRYRTTKDIILPFRVIPLVREVGRTKLEVKVVIKSNFKPSLLAQKIEVRIPTPLNTSGVQVICMKGKAKYKASENAIVWKIKRMAGMKESQISAEIELLPTNDKKKWARPPISMNFEVPFAPSGLKVRYLKVFEPKLNYSDHDVIKWVRYIGRSGIYETRC

Variants of: B1
Assay: NanoSPD assay; HeLa cells; mean of biological replicate means; parent: 2.7e+03; read off a plot

response [A.U.]	Variant
~530	chain 1 Y19A, chain 1 Y45A, chain 1 Y180A
~190	chain 1 Y25A
~210	chain 1 Y19A, chain 1 Y25A, chain 1 Y45A, chain 1 Y180A

Variants of: B1
Assay: NanoSPD assay; HeLa cells; mean of biological replicate means; parent: 1.3e+04; read off a plot

response [A.U.]	Variant
~2000	chain 1 L28A
